The assay has as its target PSD95, His tagged recombinant (UniProt P78352 1-724). Nature of the assay: BLI. Background: Biolayer interferometry detects binding as a change in optical thickness at a sensor tip.

Among the data in PMC10754036 (Nature structural & molecular biology, 2018) are Kd values, retold here.

Chain of PSD95, His tagged recombinant (P78352 whole entry): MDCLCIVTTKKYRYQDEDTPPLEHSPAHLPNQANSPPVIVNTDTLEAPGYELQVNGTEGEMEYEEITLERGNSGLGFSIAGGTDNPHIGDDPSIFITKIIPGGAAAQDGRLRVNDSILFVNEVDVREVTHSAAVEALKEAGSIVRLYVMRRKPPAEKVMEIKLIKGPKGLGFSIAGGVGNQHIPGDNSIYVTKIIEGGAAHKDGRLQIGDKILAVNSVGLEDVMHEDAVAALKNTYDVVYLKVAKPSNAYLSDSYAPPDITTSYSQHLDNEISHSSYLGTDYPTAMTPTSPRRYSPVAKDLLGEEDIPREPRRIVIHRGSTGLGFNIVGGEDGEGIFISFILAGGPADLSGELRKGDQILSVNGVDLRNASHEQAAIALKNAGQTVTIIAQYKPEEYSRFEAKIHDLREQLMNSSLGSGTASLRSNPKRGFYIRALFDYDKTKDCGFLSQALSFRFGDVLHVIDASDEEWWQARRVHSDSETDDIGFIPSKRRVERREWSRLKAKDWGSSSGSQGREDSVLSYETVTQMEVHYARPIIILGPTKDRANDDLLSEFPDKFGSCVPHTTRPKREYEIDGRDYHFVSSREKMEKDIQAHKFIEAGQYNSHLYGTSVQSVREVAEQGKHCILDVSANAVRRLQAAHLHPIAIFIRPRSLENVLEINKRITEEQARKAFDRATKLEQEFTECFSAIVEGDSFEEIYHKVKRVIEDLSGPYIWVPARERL

B1: NS1 of A/Brevig Mission/1/1918 (H1N1) influenza A virus, His tagged recombinant (natural protein)
chain: MDSNTVSSFQVDCFLWHVRKRFADQELGDAPFLDRLRRDQKSLRGRGSTLGLDIETATRAGKQIVERILKEESDEALKMTIASVPASRYLTDMTLEEMSRDWFMLMPKQKVAGSLCIRMDQAIMDKNIILKANFSVIFDRLETLILLRAFTEEGAIVGEISPLPSLPGHTDEDVKNAVGVLIGGLEWNDNTVRVSETLQRFAWRSSNENGRPPLPPKQKRKMARTIKSEV
One may read the Kd as the concentration at which binding is half-saturated. As to B1, the Kd turned out to be 1.6 µM.
